Source: publication PMC12101283, “Validation and Optimization of PURE Ribosome Display for Screening Synthetic Nanobody Libraries” (Antibodies, 2025)

Columns and labels:
[1] = biological target: T1, human fatty acid binding protein 4 (Homo sapiens, UniProt P15090); assay: ITC; MicroCal PEAQ ITC, 25 °C, PBS, one binding site model; 50 µM F4_B6 in cell with 550 µM hFABP4 in syringe; settings: both partners purified
T1 construct: The methods describe only the plasmid His-SUMO-hFABP4-(GGGGS)4-SBP; also called hFABP4; FABP4; source: E. coli BL21 (DE3), purified (Ni-NTA, SEC); not shown: His, N-terminal, cleaved; SUMO, N-terminal, cleaved

[2] = biological target: T1, human fatty acid binding protein 4; assay: pull-down; His-tagged nanobody captured from E. coli supernatant on Ni-NTA agarose and washed; 100 µL target protein solution (approximately 0.2 mg/mL) added; washes with PBS (10 mM imidazole in the 3rd); elution with 200 mM imidazole; SDS-PAGE; settings: both partners purified

T1 sequence (P15090 whole entry): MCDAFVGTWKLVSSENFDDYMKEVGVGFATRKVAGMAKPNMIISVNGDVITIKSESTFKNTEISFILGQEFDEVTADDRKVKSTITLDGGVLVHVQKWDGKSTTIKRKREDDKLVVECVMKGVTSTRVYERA

Row | Kd [1] [nM] | binding result [2] | Binder
1 | ~295 | – | F4_B6 (VHH, source: E. coli BL21; supernatant of lysed cells (ELISA; captured on Ni-NTA for the pull-down); purified (Ni-NTA, SEC) for SEC and ITC) VHH: QVQLVESGGGLVQAGGSLRLSCAASGVDMHNFEMGWYRQAPGKEREFVAAIDDVQPLTYYADSVKGRFTISRDNAKNTVYLQMNSLKPEDTAVYYCAAVKGDFWSESNYWGQGTQVTVSS
2 | – | binds | F4_C9 (VHH, source: E. coli BL21; supernatant of lysed cells (ELISA; captured on Ni-NTA for the pull-down)) VHH: QVQLVESGGGLVQAGGSLRLSCAASGPPFSFVFMGWYRQAPGKEREFVAAIFDFTDETYYADSVKGRFTISRDNAKNTVYLHMNSLKPEDTAVYYCAAARGLNYWNNVYWGQGTQVTVSS
